The target of the assay is Gαi1 R178M/A326S (human). Description: cell-based or functional assay.
Sequence of Gαi1 R178M/A326S (human) (B2RSH2 2-354 R178M/A326S): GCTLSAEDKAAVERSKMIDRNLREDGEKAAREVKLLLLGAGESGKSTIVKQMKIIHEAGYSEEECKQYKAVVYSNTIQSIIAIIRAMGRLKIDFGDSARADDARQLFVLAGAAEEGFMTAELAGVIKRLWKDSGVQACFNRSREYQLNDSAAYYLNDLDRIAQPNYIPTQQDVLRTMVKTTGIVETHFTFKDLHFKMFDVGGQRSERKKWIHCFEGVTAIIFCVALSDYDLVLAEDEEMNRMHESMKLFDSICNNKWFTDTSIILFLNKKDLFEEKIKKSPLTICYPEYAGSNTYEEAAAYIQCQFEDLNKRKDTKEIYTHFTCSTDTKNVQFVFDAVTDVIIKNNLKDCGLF

B1: RGS21 (wild type RGS domain) (protein)
chain: NMDTLLANQAGLDAFRIFLKSEFSEENVEFWLACEDFKKTKNADKIASKAKMIYSEFIEADAPKEINIDFGTRDLISKNIAEPTLKCFDEAQKLIYCLMAKDSFPRFLKSEIYKKLV
The molecule B1 gave a stimulation of GTPase activity of 8.8 fold.

These data come from US20110212476A1.
